Data reported in patent US20080220446A1, “Method for Detecting and/or Removing Protein and/or Peptide Comprising a Cross-Beta Structure From an Aqueous Solution Comprising a Protein” (priority 2005, published 2008).

Assays:
sRAGE = biological target: T1, sRAGE (Homo sapiens, UniProt Q15109); assay: Biacore surface plasmon resonance, binding to immobilized sRAGE; details: Hb-AGE 32, albumin-AGE 3.9, amyloid γ-globulins 62.5 μg ml^−1
T1 construct: comprises three domains spanning amino-acid residues 23-325; His-tag (N); thrombin cleavage site (N); made in house; host or cells: 293E cells (printed as 'hamster embryonic kidney cells')
T1 sequence (Q15109 23-325): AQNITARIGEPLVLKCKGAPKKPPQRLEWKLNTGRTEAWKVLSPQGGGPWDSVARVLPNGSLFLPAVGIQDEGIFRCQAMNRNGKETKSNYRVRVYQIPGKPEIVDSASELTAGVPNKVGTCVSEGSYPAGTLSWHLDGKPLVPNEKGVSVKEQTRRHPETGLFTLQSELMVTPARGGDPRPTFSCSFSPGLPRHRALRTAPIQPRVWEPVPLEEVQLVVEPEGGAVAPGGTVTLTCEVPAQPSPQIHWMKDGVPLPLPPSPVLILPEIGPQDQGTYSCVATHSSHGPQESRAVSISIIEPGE
Experimental: (§1) Binding of cross-β structure containing peptides/proteins was studied using surface plasmon resonance technology with a Biacore 2000 apparatus (Biacore AB, Uppsala, Sweden). A standardized amine coupling procedure was used to couple proteins with F domains to a CM5 chip (Biacore AB, Uppsala, Sweden). First, the dextran surface of the chips was activated by a 35 μl injection with a 1:1 mixture of 0.1 M N-hydroxysuccinimide (NHS) and 0.4 M N-ethyl-N′-(dimethylaminopropyl)carbodiimide (EDC) at a flow rate of 5 μl min.^−1. Then, the proteins were covalently coupled to the activated dextran surface. Remaining activated groups in each of the four flow channels were blocked by injection of 35 μl of 1 M ethanolamine hydrochloride pH 8.5. EDC, NHS and ethanolamine hydrochloride were obtained from Biacore. On one chip, on channels 1 to 4, buffer (reference channel), the soluble extracellular part of receptor for advanced glycation endproducts (sRAGE), tPA and K2P-tPA were immobilized. […] Binding of albumin-AGE was determined with a solution of 3.9 μg ml^−1 albumin-AGE in running buffer. albumin-AGE was filtered on a Millex-GV 0.22 μm filter unit (Millipore). […] Binding of Hb-AGE was also tested after centrifugation for 10 min. at 16,000*g alternative to filtration. tPA activation before and after filtration was assessed with a Plg-activation assay. […]

LRP cl-IV = biological target: T2, LRP cl-IV (Homo sapiens, UniProt Q07954); assay: ELISA, LRP cluster IV binding to misfolded proteins; details: coated at 5 μg/ml
T2 construct: Cluster IV of the low-density lipoprotein (LDL) receptor-related protein (LRP cl-IV); made in house; host or cells: HEK293E/S
T2 sequence (Q07954 3332-3778): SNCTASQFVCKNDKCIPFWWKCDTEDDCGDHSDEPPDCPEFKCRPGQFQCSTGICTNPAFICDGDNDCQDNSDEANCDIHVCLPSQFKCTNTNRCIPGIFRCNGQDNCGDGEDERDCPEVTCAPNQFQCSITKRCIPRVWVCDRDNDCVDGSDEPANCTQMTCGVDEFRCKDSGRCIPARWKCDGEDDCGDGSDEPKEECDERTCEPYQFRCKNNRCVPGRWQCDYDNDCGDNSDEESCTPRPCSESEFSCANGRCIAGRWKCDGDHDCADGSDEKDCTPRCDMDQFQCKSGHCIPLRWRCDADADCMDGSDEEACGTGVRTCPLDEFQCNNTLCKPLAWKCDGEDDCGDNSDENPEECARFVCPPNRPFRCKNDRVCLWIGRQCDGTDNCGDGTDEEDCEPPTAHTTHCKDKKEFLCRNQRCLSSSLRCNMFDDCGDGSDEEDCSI
Experimental: Binding of LRP cl-IV to misfolded protein was determined using an enzyme linked immuno sorbent assay (ELISA) set-up. For this purpose 50 μl of a 5 μg/ml solution of BSA, BSA-AGE, Hb or Hb-AGE or coat buffer (for negative control) was coated for 1 h with motion. Proteins were diluted in coat buffer (100 mM NaHCO3 pH 9.6). The BSA and Hb controls were prepared freshly by dissolving proteins at 1 mg/ml in PBS by rolling for 10 minutes on a roller bank at room temperature, 10 minutes incubation at 37° C. followed by again 10 minutes incubation at the roller bank. Coat controls were performed with anti-glycated protein antibody 4B5, anti-albumin antibody or anti Hb antibody. After coating the plates were washed twice with PBS/0.1% Tween-20 (v/v) and blocked with 300 μl/well blocking reagent (Roche Diagnostics, Almere, The Netherlands) for 1 h at room temperature with motion. […] After five washes with wash buffer binding of antibody was assessed with a secondary antibody. […] After 5 washes with wash buffer, binding of anti-FLAG antibody and secondary antibodies was assessed with 100 μl/well TMB substrate (ready to use from Tebu Bio). […] After ˜2 minutes absorbance was read at 450 nm.

tPA = tPA (Homo sapiens, UniProt P00750); assay: Biacore surface plasmon resonance, binding to immobilized tPA; details: Hb-AGE 32, albumin-AGE 3.9, amyloid γ-globulins 62.5 μg ml^−1
Sequence of tPA (P00750 36-562): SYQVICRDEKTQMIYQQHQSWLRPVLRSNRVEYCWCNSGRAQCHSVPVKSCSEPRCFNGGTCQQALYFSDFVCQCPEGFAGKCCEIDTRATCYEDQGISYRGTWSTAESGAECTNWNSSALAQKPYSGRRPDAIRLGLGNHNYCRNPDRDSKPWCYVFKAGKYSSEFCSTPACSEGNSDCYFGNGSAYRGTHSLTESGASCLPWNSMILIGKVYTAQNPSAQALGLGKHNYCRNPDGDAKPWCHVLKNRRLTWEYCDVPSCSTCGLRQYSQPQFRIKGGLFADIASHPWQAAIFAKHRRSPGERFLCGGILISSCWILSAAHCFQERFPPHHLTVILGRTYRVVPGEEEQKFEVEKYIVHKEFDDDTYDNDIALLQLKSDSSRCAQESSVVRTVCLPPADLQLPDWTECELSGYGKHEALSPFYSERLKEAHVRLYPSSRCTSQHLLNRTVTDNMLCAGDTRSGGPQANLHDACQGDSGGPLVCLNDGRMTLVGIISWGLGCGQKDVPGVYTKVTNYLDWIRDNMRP
Experimental: as §1

With “albumin-AGE: advanced glycation end-product modified bovine serum albumin” the “binding to immobilized sRAGE” value (sRAGE) was “bind”, the “binding of LRP cl-IV” value (LRP cl-IV) was “binds specifically” and the “binding to immobilized tPA” value (tPA) was “bind”.
